Among the data in paper PMC7672554, “Selective Metal Ion Utilization Contributes to the Transformation of the Activity of Yeast Polymerase η from DNA Polymerization toward RNA Polymerization” (International Journal of Molecular Sciences, 2020) are Km, kcat and kcat/Km values, retold here.

Holding throughout (assay): steady-state primer extension, Cy3-labelled RNA primer/DNA template, gel quantitation
What all share (type): biochemical, Saccharomyces cerevisiae

Substrate in series [1]: Nc1ccn([C@@H]2O[C@H](COP(=O)(O)OP(=O)(O)OP(=O)(O)O)[C@@H](O)[C@H]2O)c(=O)n1
Conditions: RNA primer, template G (correct pair), 5 mM Mn2+, 20 nM primer/template, 25 mM Tris/HCl pH 7.5, 30 °C. From the text: (§1) steady-state primer extension, Cy3-labelled RNA primer/DNA template, gel quantitation on Polη (yeast Polymerase η)

Substrate in series [2]: Nc1nc2c(ncn2[C@@H]2O[C@H](COP(=O)(O)OP(=O)(O)OP(=O)(O)O)[C@@H](O)[C@H]2O)c(=O)[nH]1
Conditions: RNA primer, template C (correct pair), 5 mM Mn2+, 20 nM primer/template, 25 mM Tris/HCl pH 7.5, 30 °C.
Source text: as §1

Substrate in series [3]: Nc1ncnc2c1ncn2[C@@H]1O[C@H](COP(=O)(O)OP(=O)(O)OP(=O)(O)O)[C@@H](O)[C@H]1O
Conditions: RNA primer, template T (correct pair), 5 mM Mn2+, 20 nM primer/template, 25 mM Tris/HCl pH 7.5, 30 °C.
Source text: as §1

Substrate in series [4]: O=c1ccn([C@@H]2O[C@H](COP(=O)(O)OP(=O)(O)OP(=O)(O)O)[C@@H](O)[C@H]2O)c(=O)[nH]1
Conditions: RNA primer, template A (correct pair), 5 mM Mn2+, 20 nM primer/template, 25 mM Tris/HCl pH 7.5, 30 °C.
Source text: as §1

B1: Polη (yeast Polymerase η) (Saccharomyces cerevisiae S288C) (protein)
chain: MSKFTWKELIQLGSPSKAYESSLACIAHIDMNAFFAQVEQMRCGLSKEDPVVCVQWNSIIAVSYAARKYGISRMDTIQEALKKCSNLIPIHTAVFKKGEDFWQYHDGCGSWVQDPAKQISVEDHKVSLEPYRRESRKALKIFKSACDLVERASIDEVFLDLGRICFNMLMFDNEYELTGDLKLKDALSNIREAFIGGNYDINSHLPLIPEKIKSLKFEGDVFNPEGRDLITDWDDVILALGSQVCKGIRDSIKDILGYTTSCGLSSTKNVCKLASNYKKPDAQTIVKNDCLLDFLDCGKFEITSFWTLGGVLGKELIDVLDLPHENSIKHIRETWPDNAGQLKEFLDAKVKQSDYDRSTSNIDPLKTADLAEKLFKLSRGRYGLPLSSRPVVKSMMSNKNLRGKSCNSIVDCISWLEVFCAELTSRIQDLEQEYNKIVIPRTVSISLKTKSYEVYRKSGPVAYKGINFQSHELLKVGIKFVTDLDIKGKNKSYYPLTKLSMTITNFDIIDLQKTVVDMFGNQVHTFKSSAGKEDEEKTTSSKADEKTPKLECCKYQVTFTDQKALQEHADYHLALKLSEGLNGAEESSKNLSFGEKRLLFSRKRPNSQHTATPQKKQVTSSKNILSFFTRKK
notes: overexpressed in yeast as N-terminal GST fusion, GST removed with PreScission protease; no truncation stated
Turning to B1, the Michaelis-Menten constant (Km) in series [1] is reported as 1.89 ± 0.42 µM; in series [2] it was 2.55 ± 0.63 µM; in series [3], 2.51 ± 0.64 µM; in series [4], 12.8 ± 2.25 µM. Besides, the kcat stood at 0.078 ± 0.00367 s⁻¹ in series [1], 0.0845 ± 0.0045 s⁻¹ in series [2], 0.0435 ± 0.00233 s⁻¹ in series [3] and 0.0585 ± 0.00317 s⁻¹ in series [4]. Besides, the kcat/Km in series [1] came out at 41300 M⁻¹ s⁻¹; in series [2], 33200 M⁻¹ s⁻¹; in series [3] it was 17300 M⁻¹ s⁻¹; in series [4] it was 4500 M⁻¹ s⁻¹.

For orientation: Km means the substrate concentration at which the rate is half of its maximum. As usually defined, the kcat is the number of substrate molecules converted per active site and unit of time at saturation. In general, kcat/Km refers to the turnover number divided by the Michaelis constant.
